According to patent US20070037177A1, “CYP19A1 polymorphisms” (priority 2005, published 2007):

Columns and labels:
[1] = tested on: Recombinant Human CYP19A1 Allozymes; experiment: CYP19A1 enzyme activity of recombinant allozymes (3H2O release from [1β3H]androst-4-ene-3,17-dione, COS-1 microsomes); type: biochemical; settings: 20 nM androstenedione substrate, corrected for transfection efficiency, 6 independent transfections
[2] = tested on: Recombinant Human CYP19A1 Allozymes; experiment: Substrate kinetics: apparent Km of recombinant CYP19A1 allozymes with androstenedione; type: biochemical; settings: androstenedione as substrate; COS-1 microsomes

Row | Molecule | % WT activity [1] [%] | Apparent Km [2]
1 | Cys264: "a CYP19A1 polypeptide (Arg264Cys) having a cysteine at amino acid residue 264" (protein, UniProt P11511 1-503, looked up, variant R264C) Aromatase: MVLEMLNPIHYNITSIVPEAMPAATMPVLLLTGLFLLVWNYEGTSSIPGPGYCMGIGPLISHGRFLWMGIGSACNYYNRVYGEFMRVWISGEETLIISKSSSMFHIMKHNHYSSRFGSKLGLQCIGMHEKGIIFNNNPELWKTTRPFFMKALSGPGLVRMVTVCAESLKTHLDRLEEVTNESGYVDVLTLLRRVMLDTSNTLFLRIPLDESAIVVKIQGYFDAWQALLIKPDIFFKISWLYKKYEKSVKDLKDAIEVLIAEKRCRISTEEKLEECMDFATELILAEKRGDLTRENVNQCILEMLIAAPDTMSVSLFFMLFLIAKHPNVEEAIIKEIQTVIGERDIKIDDIQKLKVMENFIYESMRYQPVVDLVMRKALEDDVIDGYPVKKGTNIILNIGRMHRLEFFPKPNEFTLENFAKNVPYRYFQPFGFGPRGCAGKYIAMVMMKAILVTLLRRFHVKTLQGQCVESIQKIHDLSLHPDETKNMLEMIFTPRNSDRCLEH | 72 | 
2 | Thr364: "a CYP19A1 polypeptide having a threonine at amino acid residue 364. This polypeptide (Met(364)Thr) would be considered an allozyme" (protein, UniProt P11511 1-503, looked up, variant M364T) Aromatase: MVLEMLNPIHYNITSIVPEAMPAATMPVLLLTGLFLLVWNYEGTSSIPGPGYCMGIGPLISHGRFLWMGIGSACNYYNRVYGEFMRVWISGEETLIISKSSSMFHIMKHNHYSSRFGSKLGLQCIGMHEKGIIFNNNPELWKTTRPFFMKALSGPGLVRMVTVCAESLKTHLDRLEEVTNESGYVDVLTLLRRVMLDTSNTLFLRIPLDESAIVVKIQGYFDAWQALLIKPDIFFKISWLYKKYEKSVKDLKDAIEVLIAEKRRRISTEEKLEECMDFATELILAEKRGDLTRENVNQCILEMLIAAPDTMSVSLFFMLFLIAKHPNVEEAIIKEIQTVIGERDIKIDDIQKLKVMENFIYESTRYQPVVDLVMRKALEDDVIDGYPVKKGTNIILNIGRMHRLEFFPKPNEFTLENFAKNVPYRYFQPFGFGPRGCAGKYIAMVMMKAILVTLLRRFHVKTLQGQCVESIQKIHDLSLHPDETKNMLEMIFTPRNSDRCLEH |  | elevated
